These results are taken from patent US20240327505A1.

The target in test [1] is SARS-CoV-1 spike protein on pseudovirus (SARS-CoV-1) (UniProt P59594). Kind of test: cell-based or functional assay.
Test [2] has as its target SARS-CoV-2 Wuhan-1 full-length Spike protein on pseudovirus (SARS-CoV-2) (UniProt P0DTC2). As to the kind of experiment: cell-based or functional assay.
For test [3], the target named is SARS-CoV-2 spike S1 protein (SARS-CoV-2) (UniProt P0DTC2).
Test [4] has as its target SARS-CoV-2 spike receptor-binding domain (RBD) (SARS-CoV-2) (UniProt P0DTC2).
Test [5] deals with SARS-CoV-2 spike protein on fully infectious (replication-competent) SARS-CoV-2 virus (SARS-CoV-2) (UniProt P0DTC2). Kind of test: cell-based or functional assay.
Test [6] has as its target SARS-CoV-2 Spike (S) trimer (SARS-CoV-2) (UniProt P0DTC2). Kind of test: ELISA on coated S trimer, 1:50.
Test [7] has the same target. As to the kind of experiment: SPR binning (Carterra LSA), antibody amine-coupled to the chip as ligand.

Regarding “Anti-Nucleocapsid (Neg Control) (antibody)”, the Pseudovirus Neturalization in test [1] and in test [2] was over 50 µg/mL in each case.
The term Kd denotes the constant that tells how readily two partners part at equilibrium. Lower therefore signals a tighter complex. By koff is commonly meant the first-order rate constant of dissociation. Low readings indicate a long-lived complex, high ones a short-lived complex. Broadly, the kon is the second-order rate constant of association. A high value points to fast association. In test [3], CB-6 (AB-009264) (antibody) showed a Kd of 27.7 nM, a Response of 0.361 nm, a koff of 0.0107 s⁻¹ and a kon of 386000 M⁻¹ s⁻¹. In test [4], the Kd amounted to 4.77 nM, the Response was 0.58 nm, the koff was 0.000844 s⁻¹ and the kon was 177000 M⁻¹ s⁻¹. This substance displayed a Pseudovirus Neturalization in test [1] of over 50 µg/mL. Besides, the Pseudovirus Neturalization in test [2] stood at 0.012 µg/mL. Besides, the Neutralization (Infectious virus; (µg/mL)) in test [5] is 0.13 µg/mL. Also, the OD 450 nm in test [6] worked out at 2.81 OD.
The substance “LY-CoV555 | Bamlanivimab (AB-010160) (antibody)” returned a Pseudovirus Neturalization in test [1] of over 50 µg/mL.
Take CR3022 (AB-009073) (antibody): the Pseudovirus Neturalization was 2.61 µg/mL in test [1] and over 50 µg/mL in test [2]. In test [5], this substance gave a Neutralization (Infectious virus; (µg/mL)) of over 50 µg/mL. Also, the response as ligand (RU) in test [7] was under 20 RU.
In test [1], “REGN10987 | Imdevimab (AB-010157) (antibody)” returned a Pseudovirus Neturalization of over 50 µg/mL.
With COVA1-21 (AB-010159) (antibody), the Pseudovirus Neturalization in test [1] was over 50 µg/mL; in test [2] it was 21 µg/mL.
In test [1], “REGN10933 | Casirivimab (AB-010156) (antibody)” registered a Pseudovirus Neturalization of over 50 µg/mL.
In test [3], CA-1 (AB-009265) (antibody) displayed a Kd of 43.6 nM, a Response of 0.27 nm, a koff of 0.0127 s⁻¹ and a kon of 291000 M⁻¹ s⁻¹. For the same substance, in test [4], the Kd amounted to 5.72 nM, the Response was determined as 0.53 nm, the koff came to 0.000681 s⁻¹ and the kon came out at 119000 M⁻¹ s⁻¹. Moreover, the Pseudovirus Neturalization in test [1] was over 50 µg/mL. For the same substance, the Pseudovirus Neturalization in test [2] worked out at 0.266 µg/mL. The Neutralization (Infectious virus; (µg/mL)) in test [5] turned out to be 2.46 µg/mL. The OD 450 nm in test [6] was found to be 2.74 OD.
